From doi:10.1101/2021.06.17.448874
Where “and” joins values, the source holds several entries; their conditions need not be identical. Identical values can stand only once.

Tests used:
[1] = target: microtubules polymerised from porcine brain tubulin, taxol-stabilised (porcine) (UniProt P02550); assay: co-sedimentation
[2] = target: subtilisin-digested microtubules (lacking E-hooks) (porcine) (UniProt P02550); assay: co-sedimentation

shift to pellet (%) [1]	shift to pellet (%) [2] [%]	Substance
52.7% and 50.8%	26.7	KLP-18 C-stalk (C-terminal half of the KLP-18 stalk) (domain or fragment)
56.1% and 41.6%	–	MBP-MESP-1 (meiotic spindle 1) (natural protein)
